# In patent US20240109972A1, “ANTIBODY AND TAXANE COMBINATION THERAPY” (Genmab A/S, priority 2020, published 2024):
# Test: GEN1046 in combination with docetaxel in metastatic NSCLC subjects, adverse effects
# Type: in vivo, human
# Procedure: Docetaxel was administered at a dose of 55 mg/m^2 or 75 mg/m^2 depending on the number of prior Dose Limiting Toxicities observed. The maximum tested dose of docetaxel was be 75 mg/m^2.
# Subjects with a histological or cytological diagnosis of non-squamous NSCLC must not have an EGFR-sensitizing mutation and/or ALK translocation/ROS1 rearrangement. EGFR sensitizing mutations are those mutations that are amenable to treatment with an approved TKI. Documentation of EGFR and ALK status should be available per local assessment.
# [1] = GEN1046 in combination with Docetaxel
substance,measurement,setting,value
"GEN1046: PD-L1×4-1BB bispecific antibody: PD-L1-547-FEAL combined with CD137-009-HC7LC2-FEAR (SEQ ID NOs: 1, 5, 21, 19; 8, 12, 22, 20)","Anemia Grade 5, GEN1046-related",GEN1046 + 75 mg/m^2 Docetaxel,0
same,"Blood thyroid stimulating hormone abnormal Grade 1, GEN1046-related",GEN1046 + 75 mg/m^2 Docetaxel,1
same,"Blood thyroid stimulating hormone abnormal Grade 2, GEN1046-related",GEN1046 + 75 mg/m^2 Docetaxel,0
same,"Blood thyroid stimulating hormone abnormal Grade 3, GEN1046-related",GEN1046 + 75 mg/m^2 Docetaxel,0
same,"Blood thyroid stimulating hormone abnormal Grade 4, GEN1046-related",GEN1046 + 75 mg/m^2 Docetaxel,0
same,"Blood thyroid stimulating hormone abnormal Grade 5, GEN1046-related",GEN1046 + 75 mg/m^2 Docetaxel,0
same,"Cough Grade 1, GEN1046-related",GEN1046 + 75 mg/m^2 Docetaxel,1
same,"Cough Grade 2, GEN1046-related",GEN1046 + 75 mg/m^2 Docetaxel,0
same,"Cough Grade 3, GEN1046-related",GEN1046 + 75 mg/m^2 Docetaxel,0
same,"Cough Grade 4, GEN1046-related",GEN1046 + 75 mg/m^2 Docetaxel,0
same,"Cough Grade 5, GEN1046-related",GEN1046 + 75 mg/m^2 Docetaxel,0
same,"Dry mouth Grade 1, GEN1046-related",GEN1046 + 75 mg/m^2 Docetaxel,1
same,"Dry mouth Grade 2, GEN1046-related",GEN1046 + 75 mg/m^2 Docetaxel,0
same,"Dry mouth Grade 3, GEN1046-related",GEN1046 + 75 mg/m^2 Docetaxel,0
same,"Dry mouth Grade 4, GEN1046-related",GEN1046 + 75 mg/m^2 Docetaxel,0
same,"Dry mouth Grade 5, GEN1046-related",GEN1046 + 75 mg/m^2 Docetaxel,0
same,"Dyspnea Grade 1, GEN1046-related",GEN1046 + 75 mg/m^2 Docetaxel,1
same,"Dyspnea Grade 2, GEN1046-related",GEN1046 + 75 mg/m^2 Docetaxel,2
same,"Dyspnea Grade 3, GEN1046-related",GEN1046 + 75 mg/m^2 Docetaxel,0
same,"Dyspnea Grade 4, GEN1046-related",GEN1046 + 75 mg/m^2 Docetaxel,0
same,"Dyspnea Grade 5, GEN1046-related",GEN1046 + 75 mg/m^2 Docetaxel,0
same,"Fatigue Grade 1, GEN1046-related",GEN1046 + 75 mg/m^2 Docetaxel,1
same,"Fatigue Grade 2, GEN1046-related",GEN1046 + 75 mg/m^2 Docetaxel,2
same,"Fatigue Grade 3, GEN1046-related",GEN1046 + 75 mg/m^2 Docetaxel,0
same,"Fatigue Grade 4, GEN1046-related",GEN1046 + 75 mg/m^2 Docetaxel,0
same,"Fatigue Grade 5, GEN1046-related",GEN1046 + 75 mg/m^2 Docetaxel,0
same,"Gastroesophageal reflux disease Grade 1, GEN1046-related",GEN1046 + 75 mg/m^2 Docetaxel,1
same,"Gastroesophageal reflux disease Grade 2, GEN1046-related",GEN1046 + 75 mg/m^2 Docetaxel,0
same,"Gastroesophageal reflux disease Grade 3, GEN1046-related",GEN1046 + 75 mg/m^2 Docetaxel,0
same,"Gastroesophageal reflux disease Grade 4, GEN1046-related",GEN1046 + 75 mg/m^2 Docetaxel,0
same,"Gastroesophageal reflux disease Grade 5, GEN1046-related",GEN1046 + 75 mg/m^2 Docetaxel,0
same,"Hiccups Grade 1, GEN1046-related",GEN1046 + 75 mg/m^2 Docetaxel,0
same,"Hiccups Grade 2, GEN1046-related",GEN1046 + 75 mg/m^2 Docetaxel,1
same,"Hiccups Grade 3, GEN1046-related",GEN1046 + 75 mg/m^2 Docetaxel,0
same,"Hiccups Grade 4, GEN1046-related",GEN1046 + 75 mg/m^2 Docetaxel,0
same,"Hiccups Grade 5, GEN1046-related",GEN1046 + 75 mg/m^2 Docetaxel,0
same,"Hyperglycemia Grade 1, GEN1046-related",GEN1046 + 75 mg/m^2 Docetaxel,1
same,"Hyperglycemia Grade 2, GEN1046-related",GEN1046 + 75 mg/m^2 Docetaxel,0
same,"Hyperglycemia Grade 3, GEN1046-related",GEN1046 + 75 mg/m^2 Docetaxel,1
same,"Hyperglycemia Grade 4, GEN1046-related",GEN1046 + 75 mg/m^2 Docetaxel,0
same,"Hyperglycemia Grade 5, GEN1046-related",GEN1046 + 75 mg/m^2 Docetaxel,0
same,"Lipase increased Grade 1, GEN1046-related",GEN1046 + 75 mg/m^2 Docetaxel,0
same,"Lipase increased Grade 2, GEN1046-related",GEN1046 + 75 mg/m^2 Docetaxel,1
same,"Lipase increased Grade 3, GEN1046-related",GEN1046 + 75 mg/m^2 Docetaxel,0
same,"Lipase increased Grade 4, GEN1046-related",GEN1046 + 75 mg/m^2 Docetaxel,0
same,"Lipase increased Grade 5, GEN1046-related",GEN1046 + 75 mg/m^2 Docetaxel,0
same,"Musculoskeletal chest pain Grade 1, GEN1046-related",GEN1046 + 75 mg/m^2 Docetaxel,0
same,"Musculoskeletal chest pain Grade 2, GEN1046-related",GEN1046 + 75 mg/m^2 Docetaxel,1
same,"Musculoskeletal chest pain Grade 3, GEN1046-related",GEN1046 + 75 mg/m^2 Docetaxel,0
same,"Musculoskeletal chest pain Grade 4, GEN1046-related",GEN1046 + 75 mg/m^2 Docetaxel,0
same,"Musculoskeletal chest pain Grade 5, GEN1046-related",GEN1046 + 75 mg/m^2 Docetaxel,0
same,"Nausea Grade 1, GEN1046-related",GEN1046 + 75 mg/m^2 Docetaxel,0
same,"Nausea Grade 2, GEN1046-related",GEN1046 + 75 mg/m^2 Docetaxel,1
same,"Nausea Grade 3, GEN1046-related",GEN1046 + 75 mg/m^2 Docetaxel,0
same,"Nausea Grade 4, GEN1046-related",GEN1046 + 75 mg/m^2 Docetaxel,0
same,"Nausea Grade 5, GEN1046-related",GEN1046 + 75 mg/m^2 Docetaxel,0
same,"Neutrophil count decreased Grade 1, GEN1046-related",GEN1046 + 75 mg/m^2 Docetaxel,0
same,"Neutrophil count decreased Grade 2, GEN1046-related",GEN1046 + 75 mg/m^2 Docetaxel,0
same,"Neutrophil count decreased Grade 3, GEN1046-related",GEN1046 + 75 mg/m^2 Docetaxel,0
same,"Neutrophil count decreased Grade 4, GEN1046-related",GEN1046 + 75 mg/m^2 Docetaxel,1
same,"Neutrophil count decreased Grade 5, GEN1046-related",GEN1046 + 75 mg/m^2 Docetaxel,0
same,"Palmar plantar erythrodysesthesia Syndrome (PPE) Grade 1, GEN1046-related",GEN1046 + 75 mg/m^2 Docetaxel,1
same,"Palmar plantar erythrodysesthesia Syndrome (PPE) Grade 2, GEN1046-related",GEN1046 + 75 mg/m^2 Docetaxel,0
same,"Palmar plantar erythrodysesthesia Syndrome (PPE) Grade 3, GEN1046-related",GEN1046 + 75 mg/m^2 Docetaxel,0
same,"Palmar plantar erythrodysesthesia Syndrome (PPE) Grade 4, GEN1046-related",GEN1046 + 75 mg/m^2 Docetaxel,0
same,"Palmar plantar erythrodysesthesia Syndrome (PPE) Grade 5, GEN1046-related",GEN1046 + 75 mg/m^2 Docetaxel,0
same,"Pruritus Grade 1, GEN1046-related",GEN1046 + 75 mg/m^2 Docetaxel,1
same,"Pruritus Grade 2, GEN1046-related",GEN1046 + 75 mg/m^2 Docetaxel,0
same,"Pruritus Grade 3, GEN1046-related",GEN1046 + 75 mg/m^2 Docetaxel,0
same,"Pruritus Grade 4, GEN1046-related",GEN1046 + 75 mg/m^2 Docetaxel,0
same,"Pruritus Grade 5, GEN1046-related",GEN1046 + 75 mg/m^2 Docetaxel,0
same,"Total treated subjects with related TEAEs Grade 1, GEN1046-related",GEN1046 + 75 mg/m^2 Docetaxel,4
same,"Total treated subjects with related TEAEs Grade 2, GEN1046-related",GEN1046 + 75 mg/m^2 Docetaxel,4
same,"Total treated subjects with related TEAEs Grade 3, GEN1046-related",GEN1046 + 75 mg/m^2 Docetaxel,2
same,"Total treated subjects with related TEAEs Grade 4, GEN1046-related",GEN1046 + 75 mg/m^2 Docetaxel,1
same,"Total treated subjects with related TEAEs Grade 5, GEN1046-related",GEN1046 + 75 mg/m^2 Docetaxel,0
same,"Vomiting Grade 1, GEN1046-related",GEN1046 + 75 mg/m^2 Docetaxel,1
same,"Vomiting Grade 2, GEN1046-related",GEN1046 + 75 mg/m^2 Docetaxel,0
same,"Vomiting Grade 3, GEN1046-related",GEN1046 + 75 mg/m^2 Docetaxel,0
same,"Vomiting Grade 4, GEN1046-related",GEN1046 + 75 mg/m^2 Docetaxel,0
same,"Vomiting Grade 5, GEN1046-related",GEN1046 + 75 mg/m^2 Docetaxel,0
same,Hepatotoxicity,[1],No reported drug-related hepatoxicities
same,Immune-related toxicities,[1],None reported
same,Serious adverse events related to GEN1046,"dose limiting toxicity period, in combination with Docetaxel",No serious adverse events
same,Dose Limiting Toxicity,with Docetaxel 55 mg/m^2 or 75 mg/m^2,No Dose Limiting Toxicity reported
